The values that follow come from paper PMC10156792, “The structure and evolutionary diversity of the fungal E3-binding protein” (Communications Biology, 2023).

Data set [1] concerns the target N.crassa E3-binding protein in the native pyruvate dehydrogenase complex (N.crassa). Put plainly: cryo-EM structure; native PDC data EMPIAR-10489 reprocessed; symmetry-expanded consensus alignments only, C3 symmetry, 4.1 Å.
Data set [2] deals with the molecule itself. Put plainly: cryo-EM structure; recombinant co-expressed CTD:CBD sub-complex (tE2/PX261); symmetry expansion, signal subtraction and classification of E2 trimers, C3 symmetry, 3.2 Å.

As a reminder, the stoichiometry N is the number of molecules, sites or subunits per partner or assembly.

Turning to “N.crassa E3-binding protein in the native pyruvate dehydrogenase complex (natural protein)”, the stoichiometry N in data set [1] is 3.

B1: N.crassa E3-binding protein core-binding domain (residues 261-426), his-tagged (domain or fragment, UniProt Q7RWS2 261-426, looked up)
chain: PAPPPVAVVTAPISLSAAIDVQNKLHKTIGVFLPLSTFITRATEIANQKLPLPANYQPTADELFNQVLGLDKVTRKESRGSYTPTFGSFVAPQRAARKADIIDILAAPSTRVAASAQSKSAAPGLTTSGPNVFSLQVPKSEEKRAQAFLQKMKLVLEQEPDKLVRA
notes: residues 265-346 and 390-425 were built; Trimer inside the E2 core by the cryo-EM reconstruction; also called E3BP CBD; CBD; source: E. coli Rosetta2 (DE3), co-expressed with E2 225-458 from the petDuet vector, purified (Ni-NTA, SEC)
As to B1, the “stoichiometry N” value in data set [2] came to 3.

B2: N.crassa E2 C-terminal catalytic transacetylase domain (residues 225-458) (domain or fragment, UniProt P20285 225-458, looked up)
chain: AAYTDVPISGMRKTIAARLKESVTENPHFFVSTNLSVSKLLKLRQALNSSADGRYKLSVNDFLIKAMGIASKRVPTVNSSWRDGVIRQFETVDVSVAVATPNGLITPIVKGVEGKGLESISAAVKELAKKARDGKLKPEEYQGGSISISNMGMNPAVQSFTAIINPPQAAILAVGAPQKVAVPVENEDGTTGVSWDEQIIVTASFDHKVVDGAVGAEWIRELKKVIENPLELLL
notes: Forms trimers that assemble into the icosahedral PDC core; also called E2 CTD; CTD; source: E. coli Rosetta2 (DE3), co-expressed with his-tagged E3BP 261-426 from the petDuet vector, purified (Ni-NTA, SEC)
As to B2, in data set [2], the binding result is “binds”.
